In PMC10085707:

Tests used:
[1] = target: SpRadA K101A point mutant (Streptococcus pneumoniae) (UniProt Q8DRP0); assay: negative-stain electron microscopy
[2] = target: SpRadA helicase (Streptococcus pneumoniae RadA), full length (Streptococcus pneumoniae) (UniProt Q8DRP0); assay: negative-stain electron microscopy
SpRecA = SpRecA (Streptococcus pneumoniae, UniProt P0A452 1-388); assay: fluorescence anisotropy

SpRadA K101A point mutant (from UniProt Q8DRP0 1-420) (enzyme)
stoichiometry N [1]: 6

SpRadA helicase (Streptococcus pneumoniae RadA), full length (from UniProt Q8DRP0 1-420) (enzyme)
stoichiometry N [2]: 6

B1: T65 (polydT 65-mer) (ssDNA)
DNA: TTTTTTTTTTTTTTTTTTTTTTTTTTTTTTTTTTTTTTTTTTTTTTTTTTTTTTTTTTTTTTTTT
binding result (SpRecA): binds
